Measurements taken from the supplement of paper PMC9233669.
This sample holds only a part of the variants without activity.

Experiments:
[1] = system: biotinyl-Phe-oxazolone; assay: self-aminoacylation, catalytic enhancement (BFO) (fold over background); higher = more active; k-Seq, kA / k0A0; sequences stand for … in GGGAAUGGAUCCACAUCUACGAAUUC…UUCACUGCAGACUUGACGAAGCUG
Summary of the method: (§1)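 Mutagenized RNA pools with a 21-nt variable region (0.43 μM) were reacted with each biotinyl-aminoacyl-oxazolone at 2–1250 μM for 90 minutes at room temperature, in 50 μL HEPES/NaCl/KCl/MgCl2/CaCl2 buffer containing 5% acetonitrile at pH 6.9–7.0. RNA captured on streptavidin was quantified by triplicate qPCR and by Illumina sequencing. The fraction reacted for each sequence was fit to a pseudo-first-order model with bootstrapping, and catalytic enhancement is the median kA divided by the uncatalyzed rate, taken as the low-activity peak of a bimodal Gaussian fit.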

[2] = system: biotinyl-Ile-oxazolone; assay: self-aminoacylation, catalytic enhancement (BIO) (fold over background); higher = more active; k-Seq, kA / k0A0; sequences stand for … in GGGAAUGGAUCCACAUCUACGAAUUC…UUCACUGCAGACUUGACGAAGCUG
Summary of the method: as §1

[3] = system: biotinyl-Met-oxazolone; assay: self-aminoacylation, catalytic enhancement (BMO) (fold over background); higher = more active; k-Seq, kA / k0A0; sequences stand for … in GGGAAUGGAUCCACAUCUACGAAUUC…UUCACUGCAGACUUGACGAAGCUG
Summary of the method: as §1

[4] = system: biotinyl-Val-oxazolone; assay: self-aminoacylation, catalytic enhancement (BVO) (fold over background); higher = more active; k-Seq, kA / k0A0; sequences stand for … in GGGAAUGGAUCCACAUCUACGAAUUC…UUCACUGCAGACUUGACGAAGCUG
Summary of the method: as §1

[5] = system: biotinyl-Leu-oxazolone; assay: self-aminoacylation, catalytic enhancement (BLO) (fold over background); higher = more active; k-Seq, kA / k0A0; sequences stand for … in GGGAAUGGAUCCACAUCUACGAAUUC…UUCACUGCAGACUUGACGAAGCUG
Summary of the method: as §1

[6] = system: biotinyl-Trp-oxazolone; assay: self-aminoacylation, catalytic enhancement (BWO) (fold over background); higher = more active; k-Seq, kA / k0A0; sequences stand for … in GGGAAUGGAUCCACAUCUACGAAUUC…UUCACUGCAGACUUGACGAAGCUG
Summary of the method: as §1

Row | Sequence | self-aminoacylation [1] | self-aminoacylation [2] | self-aminoacylation [3] | self-aminoacylation [4] | self-aminoacylation [5] | self-aminoacylation [6]
1 | AUUACCCUGGGCAUCGCGUGA [Fam2.1 aminoacylation ribozyme variant] | 48.7 | 3.74 | 6.98 | 5.38 | 9.41 | 7.7
2 | CUACUUCAAACACUCGGUCAG [Fam1A.1 aminoacylation ribozyme variant] | 0.496 | 0.907 | 0.878 | 0.958 | 0.833 | 0.721
3 | GAGUUUGCUAAUAGUCGUAAG [Fam3.1 aminoacylation ribozyme variant] | 30.8 | 1.4 | 1.4 | 1.17 | 1.28 | 8.52
4 | AUGUUUGCUAAUAGCCGCAAG [Fam3.1 aminoacylation ribozyme variant] | 2.62 | 1.28 | 0.997 | 1.04 | 1.14 | 1.36
5 | CCACAGUUCAACCAAUCGGUC [Fam1B.1 aminoacylation ribozyme variant] | 6.48 | 1.28 | 1.23 | 1.26 | 1.51 | 5.76
6 | CCAGACUUCAAGCCAUCGGUC [Fam1B.1 aminoacylation ribozyme variant] | 0.714 | 1.34 | 1.17 | 1.46 | 1.24 | 1.33
7 | CCACACUUCAAGAAAUCGGAC [Fam1B.1 aminoacylation ribozyme variant] | 0.823 | 0.898 | 0.663 | 0.685 | 0.572 | 0.393
8 | CUACUUGAAACAACCGGUCUG [Fam1A.1 aminoacylation ribozyme variant] | 0.529 | 1.07 | 1.18 | 1.01 | 0.805 | 1.24
9 | CCACUUCAAACACUCGGUCUG [Fam1A.1 aminoacylation ribozyme variant] | 4.37 | 1.45 | 1.75 | 2.14 | 1.73 | 1.5
10 | AAGUUUGCUAAUGGUAGCAAG [Fam3.1 aminoacylation ribozyme variant] | 1.12 | 1.02 | 0.976 | 0.994 | 0.692 | 0.649
11 | CUACUUCAAACAAUCGGGGUG [Fam1A.1 aminoacylation ribozyme variant] | 2.9 | 3.04 | 3.77 | 2.35 | 4.32 | 3.36
12 | CUACUUUAAACAAUAGGUCUG [Fam1A.1 aminoacylation ribozyme variant] | 0.945 | 0.925 | 0.979 | 0.891 | 0.841 | 0.648
13 | AAGUUUGCUAAUAAUCGAAAG [Fam3.1 aminoacylation ribozyme variant] | 0.807 | 1.02 | 0.793 | 0.764 | 0.95 | 0.78
14 | AUUACCUUGGUCAUCGAGUGU [Fam2.1 aminoacylation ribozyme variant] | 3.39 | 2.19 | 3.47 | 2.37 | 3.59 | 3.8
15 | AUUCUCCUAGGUCGUCGGGUG [Fam2.2 aminoacylation ribozyme variant] | 12.2 | 2.55 | 2.72 | 2.38 | 2.85 | 2.28
16 | CAACUUCAAACAAGCGGUCUG [Fam1A.1 aminoacylation ribozyme variant] | 1.19 | 1.42 | 1.24 | 1 | 1.12 | 1.3
17 | AAGCUUGCUAAUAGUCGCACG [Fam3.1 aminoacylation ribozyme variant] | 4.41 | 1.81 | 1.29 | 1.76 | 1.6 | 1.33
18 | AUUACGUUGGUCAUCGAGUGA [Fam2.1 aminoacylation ribozyme variant] | 11.7 | 3.1 | 4.23 | 3.18 | 4.86 | 5.9
19 | AUUACCCUGGCAAUCGAGUGA [Fam2.1 aminoacylation ribozyme variant] | 28.2 | 2.78 | 4.83 | 3.02 | 5.38 | 5.92
20 | CUACGUCAAGCAAUCGGUCUG [Fam1A.1 aminoacylation ribozyme variant] | 1.88 | 1.63 | 1.39 | 1.72 | 1.47 | 1.17
21 | CUAUUUCAAACAAUGGGUCUG [Fam1A.1 aminoacylation ribozyme variant] | 0.641 | 0.924 | 0.836 | 0.81 | 0.863 | 0.802
22 | AUUACCCUGGUCAUCUAGUGC [Fam2.1 aminoacylation ribozyme variant] | 1.27 | 0.835 | 1.06 | 1 | 1.08 | 0.68
23 | CUUAACCUGGUCAUCGAGUGA [Fam2.1 aminoacylation ribozyme variant] | 5.1 | 2.9 | 5.64 | 3.11 | 4.95 | 6.88
24 | AAGUUUGCUAAUAGUCGAAUG [Fam3.1 aminoacylation ribozyme variant] | 1.48 | 1.09 | 1.17 | 0.903 | 0.88 | 1.17
25 | CUUCUUCAAACACUCGGUCUG [Fam1A.1 aminoacylation ribozyme variant] | 0.651 | 0.938 | 1.04 | 0.977 | 0.791 | 0.901
26 | AAGUUUGCUGGUAGUCGCAAG [Fam3.1 aminoacylation ribozyme variant] | 1.12 | 0.97 | 0.778 | 0.86 | 0.96 | 0.864
